Results: patent publication US10849966B2, “Methods for treating netosis and neutrophil activation” (TRUSTEES OF BOSTON UNIVERSITY, priority 2017, dated 2020)
Read-outs that look alike come from different tables or passages of the source.

Experiments:
[1] = system: pancreatic peritoneal metastatic tumors; assay: combination anti-DEspR mAb and gemcitabine in rats with pancreatic peritoneal metastatic tumors; assay type: in vivo; details: per rat
Protocol: FIG. 36 depicts representative images of tumor treated rats with combination anti-DEspR mAb and gemcitabine vs gemcitabine alone, and mock-treated saline controls. GEM tx: gemcitabine treatment (100 mg/kg/dose iv×2). Hu-6g8 or ABTM-468: humanized anti-DEspR mAb treatment 1 mg/kg/dose iv×1/week×2. Combo-tx: combination therapy. Saline mock Tx: mock.
The observations of anti-DEspR/gemcitabine synergy supports the potential of anti-DEspR mAb therapy to be a compelling partner for combination with checkpoint inhibitors. […] The paradigm of unique combinatorial synergy was further tested in vivo. […] Moreover, there was no ascites in ComboTx-rats. Gut distention from gut-dysfunction is also evident in saline mock-treated (Tx) control. (FIG. 36).
Importantly, metastasis to the liver and retroperitoneal space, and ascites were all prevented/inhibited by ComboTx.

[2] = molecular target: T1, DEspR on intact human cells (Homo sapiens, UniProt B0L3A2); assay: hu6g8 binding to DEspR on intact human cells; details: done in triplicate
T1 construct: endogenous in cells; host or cells: intact human cells / 'DEspR+ human cells'
T1 sequence (B0L3A2 1-85): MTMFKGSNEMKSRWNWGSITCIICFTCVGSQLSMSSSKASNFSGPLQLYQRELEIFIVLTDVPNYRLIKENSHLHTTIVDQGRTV
Text: (§1) FIGS. 17A-17C depict anti-DEspR-mab (hu6g8 mab). FIG. 17A depicts a diagram of DEspR, murine precursor mabs and humanized IgG and IgG4 mabs. Hu6g8 is notated as 6g8g7-hu-IgG4 raised against epitope 2, spanning the putative binding domain.
Described herein is the development, characterization, and validation of a fully humanized anti-DEspR mAb with a S228P hinge-stabilized IgG4/kappa FC region, designated herein as hu-6g8 or […]. The hu-6g8 was designed for high binding affinity to DEspR+ human cells and inhibition of activated neutrophil survival. hu-6g8 is reactive in all species, having identical epitopes in human, primates and rodents, which facilitates preclinical and clinical studies using the therapeutic lead. […] (FIG. 6). Through recombinant DNA technology, hu-6g8 was designed with optimal biophysical properties via: a) avoidance of T-cell epitopes for low immunogenicity—‘deimmunized’, b) optimization of heavy and light chain interactions for stability of variable domains, and c) exclusion of destabilizing post-translational modification sites [deamidation, oxidation, acid-lability, inappropriate N-glycosylation, isomerization and pyroglutamate formation].
Described herein are the advantages of anti-DEspR mAb targeted AECs. DEspR, the dual endothelin1/signal peptide receptor,^9 is a validated target on human activated neutrophils and NETs. […]

activated neutrophils = assay: dose-response survival assay of activated neutrophils (Trypan blue dye exclusion); assay type: cell-based; details: for IC50: live cells counted by Trypan blue dye exclusion, read-out: IC50, inhibition of activated neutrophil survival
Text: FIG. 6 depicts a graph comparison of functional activity of anti-DEspR fully humanized 6g8 mAb, 6g8-humab, and prototype murine anti-DEspR 6g8 mAb, 6g8-mumab.
as §1
Described herein are the advantages of anti-DEspR mAb targeted AECs. DEspR, the dual endothelin1/signal peptide receptor,^9 is a validated target on human activated neutrophils and NETs. Hu6g8 binds human activated neutrophils (FIG. 18A) and NETs (FIG. 18B), as confirmed by Western Blot analysis of DEspR protein in human kidney (K), and activated neutrophil samples, act-Ns (FIG. 18C). Humanized anti-DEspR-mab (hu6g8 mab) is an ideal targeting moiety. Hu6g8 is the multi-species Human/NHPrimate/Rat reactive humanized-deimmunized anti-DEspR-mab with a hinge-stabilized IgG4S228P/kappa Fc region (FIG. 17A) to avoid (ADCC-antibody dependent cell-mediated cytotoxicity, CDC-complement dependent cytotoxicity), and to eliminate loss of targeting upon Fab arm exchange typical of native IgG4 isotype. […] Through recombinant DNA technology, the antibody design incorporates: a) avoidance of T-cell epitopes for low immunogenicity; b) optimization of heavy and light chain interactions for stability of variable domains; and, c) exclusion of destabilizing post-translational modification sites [e.g., deamidation, oxidation]. The targeting of DEspR^+ NETs, but sparing of DEspR(−) quiescent neutrophils via the anti-DEspR mAb is also novel. […] The use of human neutrophil-elastase cleavable linker is advantageous as this connector-peptide can be added by recombinant technology and HNE is enriched on NETs and actually a reason for the injurious properties of NETs. HNE is desirable for local therapeutic delivery [Owen C A, Campbell E J. J Leukocyte Biol 1999, 65 (2) 137-150], has specificity for small uncharged amino acids particularly alanine (A) and valine (V) [Meers P. Adv Drug Delivery Rev. 2001. 53 (3) 265-272]. […] The advantages of all three in an AEC is novel and robust as the targeted delivery and release of DNAse 1 on NETs can attain in vivo efficacy of what has been shown in vitro, the induction of macrophage uptake-and-clearance of NETs upon DNAse 1 digest of NETs DNA. In summary, targeting the intravascular NETs sites. The humanized anti-DEspR-mab with a hinge-stabilized IgG4/kappa Fc region to avoid Fab arm exchange in vivo and ensuing loss of targeting was selected. Additionally, this avoids immune effector functions of IgG1 mAbs (ADCC, CDC), which would worsen endothelial injury. […]

[3] = system: LPS-activated neutrophils; assay: ex vivo survival of LPS-activated neutrophils; assay type: cell-based, rat; details: vs control non-treated activated neutrophils, P<0.0001; listed as 6g8
Text: FIGS. 2A-2B depict DEspR expression on rat activated neutrophils and anti-DEspR inhibition of activated neutrophil survival. FIG. 2A) FACS analysis of CD11b activated neutrophils that are DEspR+(bold oval), and DEspR[−] (bold circle). Quiescent neutrophils are DEspR[−] and CD11B[−] in Quadrant Q4. FIG. 2B depicts inhibition of the extended survival of activated neutrophils by two different anti-DEspR mAbs targeting two different epitopes on DEspR.
DEspR is expressed on activated human neutrophils (FIG. 1A) and in neutrophils undergoing NETosis (FIG. 1C-D), in contrast to isotype control (FIG. 1B). Anti-DEspR mAb detects DEspR expression on rat LPS-activated neutrophils (FIG. 2A). […] Majority of CD11b activated neutrophils are DEspR+(Red bold circle) in contrast to CD11b+ but DEspR(−) (yellow circle) activated neutrophils (FIG. 2A).
Briefly, this anti-DEspR approach is supported by experimental data as outlined below: • 1. Validation of DEspR as target. DEspR is expressed on activated human neutrophils (FIG. 1A,1C,1D). Anti-DEspR immunostaining specificity is shown by no signal in isotype control neutrophils (FIG. 1B). Most human neutrophils undergoing NETosis are DEspR+ (FIG. 1C-1D). NETs (neutrophil extracellular traps) are associated with organ microthrombi in MOF and directly induce endothelial and epithelial cell death,^56 all of which are pathogenic events in ARDS. • 2. […]

[4] = system: LPS-induced hemorrhagic encephalopathy in stroke prone rats; assay: LPS-induced hemorrhagic encephalopathy / multi-organ failure rat model; assay type: in vivo
Text: FIG. 3A) control rat brain after PBS-buffer perfusion to eliminate intravascular blood.
FIG. 4 depicts a survival curve analysis of anti-DEspR treated rats compared with non-treated rats in a rat model of LPS-induced multi-organ failure manifesting predominantly as hemorrhagic encephalopathy (phenotype corroborated in FIG. 3A-3F).
Neutrophil-mediated tissue injury has been implicated in blood brain barrier disruption or injury.
The murine precursor anti-DEspR antibody, 6g8-mumab, was studied in a rat model of LPS-induced hemorrhagic encephalopathy as a paradigm of multi-organ failure (MOF) in ARDS and sepsis (FIG. 3A-3F).
It was also determined whether anti-DEspR can increase survival of rats in a LPS-induced hemorrhagic encephalopathy MOF rat model.

Molecule	Ascites volume [1] [mls]	Tumor weight (g) Greater Omentum [1] [g]	Ascites ([1]; GEM 100 mg/kg/dose iv×2, hu-6g8 1 mg/kg/dose iv×1/week×2)	EC50 [2] [nM]	IC50 (activated neutrophils; listed as mu-6g8) [nM]	IC50 (activated neutrophils) [nM]	IC50, inhibition of activated neutrophil survival (activated neutrophils; maximum dose used in the dose-response survival assay) [µg/mL]	survival of activated neutrophils ex vivo [3]	progression to hemorrhagic encephalopathy ([4]; single dose 1 mg/kg/dose iv after LPS)	murine IgG levels in brain (ELISA of brain membrane proteins) ([4]; treated rat brains, target engagement)	neutrophil myeloperoxidase (MPO) levels in the brain (ELISA) ([4]; vs non-treated LPS brains)	rat albumin levels in the brain (ELISA), brain edema ([4]; vs non-treated LPS brains)
Nc1ccn([C@@H]2O[C@H](CO)[C@@H](O)C2(F)F)c(=O)n1 [GEM, gemcitabine]	1.5	1.6351	Bloody									
6g8-mumab: murine precursor anti-DEspR antibody, pan-species reactive anti-Human/Rat/Monkey DEspR mAb (antibody, V domains shown) VH: GSEVQLQESGGGLVQPGGSLKLSCAASGFDFSRYWMSWVRQAPGKGLEWIGEINPDSSTINYTPSLKDKFIISRDTAKKTLYLQMSKVRSEDTALYYCARHGRGMDYWSQGTSVTVSSAKTTPPSVYGGGGS VL: GGGGSDIVLTQTNQIMSASVGDRVSVTCKASQNVDSNVAWYQQKPGHSPKALIYSASYRYSRVPDRITGSGSGTDFTLTITNVQSKDLADYFCQQYHSYPLLAFGAGTKLELKRADAAPTVSLE				178	> 198	> 200	> 30	decreased their survival	attenuated the progression to life-threatening hemorrhagic encephalopathy	greater brain levels than anti-DEspR 10a3	decreased myeloperoxidase levels	decreased albumin levels
